Bridge positions count the residues as written; N and C are the ends. Square brackets hold non-standard residues; d marks the D form. Ends that are not written are not given here. Nle = CCCC[C@H](N)C(=O)O; Orn = NCCC[C@H](N)C(=O)O; PEG = not defined here; Aib = CC(C)(N)C(=O)O
Each binder was assayed against T1, GLP-1 receptor (UniProt P43220 24-463, limits assumed) (assay: cell-based or functional assay).

| Binder | EC50 [nM] |
| --- | --- |
| HSQGTFTSDYSKYLDSRRAQDFVQWLMNGGPSSGAPPPS-NH2 [-MNGG30 PSSGAPPPS (SEQ ID NO: 522)] | 0.31 |
| HSQGTFTSDYSKYLDSRRAQDFVQWLMKGGPSSGAPPPS-NH2 [-MKGG30 PSSGAPPPS (SEQ ID NO: 523)] | 0.8 |
| HSQGTFTSDYSKYLDSRRAQDFVQWLVKGGPSSGAPPPS-NH2 [-VKGG30 PSSGAPPPS (SEQ ID NO: 524)] | 0.21 |
| HSQGTFTSDYSKYLDSRRAQDFVQWLMDGGPSSGAPPPS-NH2 [-MDGG30 PSSGAPPPS (SEQ ID NO: 525)] | 0.13 |
| HSQGTFTSDYSKYLDERRAKDFVQWLMDGGPSSGAPPPS-NH2 [E16K20-MDGG30 PSSGAPPPS (SEQ ID NO: 526)] | 0.02 |
| HAEGTFTSDVSSYLEGQAAKEFIAWLVKGG-NH2 [GLP-1-VKGG30 (SEQ ID NO: 527)] | 0.025 |

The binders below were run against T2, glucagon receptor (UniProt P47871 26-477, limits assumed) (assay: cell-based or functional assay).
T2 sequence (P47871 26-477 limits assumed): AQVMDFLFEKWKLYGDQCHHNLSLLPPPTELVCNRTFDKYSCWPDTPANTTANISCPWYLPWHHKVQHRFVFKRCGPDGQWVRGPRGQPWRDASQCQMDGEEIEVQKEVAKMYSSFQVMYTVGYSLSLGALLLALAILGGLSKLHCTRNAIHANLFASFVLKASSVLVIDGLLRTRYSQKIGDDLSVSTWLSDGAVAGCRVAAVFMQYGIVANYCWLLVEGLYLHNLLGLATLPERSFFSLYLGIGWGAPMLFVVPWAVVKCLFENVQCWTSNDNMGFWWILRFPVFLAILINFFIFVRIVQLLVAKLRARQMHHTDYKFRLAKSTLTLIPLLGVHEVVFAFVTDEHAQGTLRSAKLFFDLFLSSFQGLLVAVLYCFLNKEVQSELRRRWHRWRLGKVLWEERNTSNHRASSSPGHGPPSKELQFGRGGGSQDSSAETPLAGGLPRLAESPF

| Binder | EC50 [nM] |
| --- | --- |
| HSQGTFTSDYSKYLDSRRAQDFVQWLMNTGPSSGAPPPS (C-terminal amide) [Glucagon-Cex] | 0.14 |
| HSQGTFTSDYSKYLDSRRAQDFVQWLMKGGPSSGAPPPS-NH2 [-MKGG30 PSSGAPPPS (SEQ ID NO: 523)] | 0.61 |
| HSQGTFTSDYSKYLDSRRAQDFVQWLVKGGPSSGAPPPS-NH2 [-VKGG30 PSSGAPPPS (SEQ ID NO: 524)] | 1.16 |
| HSQGTFTSDYSKYLDSRRAQDFVQWLMDGGPSSGAPPPS-NH2 [-MDGG30 PSSGAPPPS (SEQ ID NO: 525)] | 0.12 |

Biological target: T1, GLP-1 receptor
Experiment: cell-based or functional assay
Remark: another data set of the same source

| Binder | % Potency Relative to Native [%] |
| --- | --- |
| H[Aib]QGTFTSDYSKYLDEQAAKEFICWLMNT-NH2 [Chimera AIB2, Cys24 (SEQ ID NO: 486), parent w/o PEG] | 161 |
| H[Aib]QGTFTSDYSKYLDEQAAKEFIC(PEG)WLMNT-NH2 (not fully specified; reading uncertain) [Chimera AIB2, Cys24 (SEQ ID NO: 486), parent w/PEG] | 82.5 |
| H[Aib]QGTFTSDYSKYLDEQAAKEFICWLMNT-NH2 (lactam 16-20) [Chimera AIB2, Cys24 Lactam (SEQ ID NO: 504), parent w/o PEG] | 230 |
| H[Aib]QGTFTSDYSKYLDEQAAKEFIC(PEG)WLMNT-NH2 (lactam 16-20; not fully specified; reading uncertain) [Chimera AIB2, Cys24 Lactam (SEQ ID NO: 504), parent w/PEG] | 38 |

Biological target: T2, glucagon receptor
Experiment: cell-based or functional assay
Remark: another data set of the same source

| Binder | % Potency Relative to Native [%] |
| --- | --- |
| H[Aib]QGTFTSDYSKYLDEQAAKEFICWLMNT-NH2 [Chimera AIB2, Cys24 (SEQ ID NO: 486), parent w/o PEG] | 15.4 |
| H[Aib]QGTFTSDYSKYLDEQAAKEFIC(PEG)WLMNT-NH2 (not fully specified; reading uncertain) [Chimera AIB2, Cys24 (SEQ ID NO: 486), parent w/PEG] | 2.6 |
| H[Aib]QGTFTSDYSKYLDEQAAKEFICWLMNT-NH2 (lactam 16-20) [Chimera AIB2, Cys24 Lactam (SEQ ID NO: 504), parent w/o PEG] | 114 |
| H[Aib]QGTFTSDYSKYLDEQAAKEFIC(PEG)WLMNT-NH2 (lactam 16-20; not fully specified; reading uncertain) [Chimera AIB2, Cys24 Lactam (SEQ ID NO: 504), parent w/PEG] | 9.2 |

Biological target: T1, GLP-1 receptor
Experiment: cell-based or functional assay
Remark: another data set of the same source

| Binder | cAMP Induction, Percent Potency Relative to Native Ligand [%] |
| --- | --- |
| HS[Nle]GTFTSDYSKYLDERRAQDFVQWLMNT-NH2 [NLeu3, E16 Gluc-NH2] | 20.6 |
| HS[Orn]GTFTSDYSKYLDERRAQDFVQWLMNT-NH2 [Orn3, E16 Gluc-NH2] | 0.1 |

Biological target: T1, GLP-1 receptor
Experiment: cell-based or functional assay
Remark: another data set of the same source

| Binder | cAMP Induction, Percent Potency Relative to Native Ligand [%] |
| --- | --- |
| HSQGTFTSDYSKYLEERRAQDFVQWLMNT-NH2 [E15, E16 Gluc-NH2] | 9.2 |
